In patent US20200339678A1 (RIGEL PHARMACEUTICALS, published 2020):

T1: human TIGIT fused to a beta galactosidase fragment, expressed on YTS cells (human, UniProt Q495A1 22-244)
T1 sequence (looked up): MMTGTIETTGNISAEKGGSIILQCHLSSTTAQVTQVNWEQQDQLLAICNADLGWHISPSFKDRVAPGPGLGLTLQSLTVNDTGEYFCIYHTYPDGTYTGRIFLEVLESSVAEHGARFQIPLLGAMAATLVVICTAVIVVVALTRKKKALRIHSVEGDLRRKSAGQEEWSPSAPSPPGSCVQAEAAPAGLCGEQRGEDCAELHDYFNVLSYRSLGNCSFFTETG

T2: mouse TIGIT-Fc (mouse, UniProt P86176 29-148)
T2 construct: extracellular domain; also called mouse TIGIT extra cellular domain
T2 sequence (looked up): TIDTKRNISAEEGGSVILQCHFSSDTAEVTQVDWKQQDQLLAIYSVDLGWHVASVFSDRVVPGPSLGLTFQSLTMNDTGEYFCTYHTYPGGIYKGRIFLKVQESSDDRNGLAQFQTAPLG

T3: biotinylated human TIGIT (human, UniProt Q495A1 22-141, biotinylated (EZ-Link NHS-PEG4-biotin kit))
T3 construct: extracellular domain; also called human TIGIT extra cellular domain; TIGIT-ECD
T3 sequence (looked up): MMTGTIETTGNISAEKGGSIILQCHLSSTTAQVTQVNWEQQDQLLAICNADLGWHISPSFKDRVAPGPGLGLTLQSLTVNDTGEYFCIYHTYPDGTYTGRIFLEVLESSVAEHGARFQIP

T4: human TIGIT expressed in YTS cells, fused to a portion of beta galactosidase (human, UniProt Q495A1 22-244)
T4 sequence (looked up): T1 sequence (looked up)

T5: mouse TIGIT-Fc (mouse, UniProt P86176 29-148)
T5 construct: extracellular domain; also called mouse TIGIT-ECD; not shown: Fc
T5 sequence (looked up): T2 sequence (looked up)

T6: biotinylated human TIGIT extra cellular domain (human, UniProt Q495A1 22-141, biotinylated using the EZ-Link NHS-PEG4-biotin kit)
T6 construct: extracellular domain; also called human TIGIT-ECD
T6 sequence (looked up): T3 sequence (looked up)

T7: His-tagged recombinant Mouse TIGIT (mouse, UniProt P86176 29-148, limits assumed)
T7 construct: Coated on the plate at 0.5 µg/mL in the direct ELISA; not shown: His tag
T7 sequence (looked up): T2 sequence (looked up)

T8: His-tagged recombinant Human TIGIT (human, UniProt Q495A1 22-141)
T8 construct: Coated on the plate at 0.5 µg/mL in the direct ELISA; also called hTIGIT; not shown: His tag
T8 sequence (looked up): T3 sequence (looked up)

B1: Ab143 (Fab, V domains shown)
VH: EVQLLESGGGLVQPGGSLRLSCAASGFTFSSYSMHWVRQAPGKGLEWVAAINSNAGSSSYADSVKGRFTISRDNSKNTLYLQMNSLRAEDTAVYYCARVPYGVWMDYWGQGTLVTVSS
VL: not shown
notes: clone from a phage library of monovalent human Fabs; also called clone Ab143
B2: Ab143 (Fab, V domains shown)
VH: B1 VH
VL: not shown
notes: ARV

Key:
[1] = target: T1, human TIGIT fused to a beta …; experiment: cell-based or functional assay
mouse TIGIT-Fc [2] = target: T2, mouse TIGIT-Fc; experiment: competitive ELISA, mTIGIT-Fc to coated PVR
Method: (§1) Antibodies were serially diluted in a 10-point curve starting at 1 μM in 3-fold steps. […] Units are in microM.

biotinylated human TIGIT = target: T3, biotinylated human TIGIT; experiment: competitive ELISA, biotin-hTIGIT to coated PVR
Method: as §1

[3] = target: T1, human TIGIT fused to a beta …; experiment: cell-based or functional assay; remark: listed apart in the source
[4] = target: T4, human TIGIT expressed in YTS cells, …; experiment: cell-based or functional assay
mouse TIGIT-Fc [5] = target: T5, mouse TIGIT-Fc; experiment: competitive ELISA vs coated PVR
Method: as §1

[6] = target: T6, biotinylated human TIGIT extra cellular …; experiment: competitive ELISA vs coated PVR
Method: as §1

[7] = target: T7, His-tagged recombinant Mouse TIGIT; experiment: ELISA
Method: (§2) Binding affinities for antigen binding to anti-TIGIT monoclonal antibodies were determined by ELISA. […] Antibodies to be tested were diluted to 1 μM in PBS buffer containing 1% BSA and diluted 3-fold in a 10-point curve. […] Detection of the secondary antibody was determined using streptavidin-HRP and TMB reagent. All assays were performed at room temperature. Curve-fitting software was used to determine the EC₅₀ for each antibody.

[8] = target: T8, His-tagged recombinant Human TIGIT; experiment: ELISA
Method: as §2

Binder | IC50 of inhibition of Grb2 recruitment (YTS_hTIGIT/hGrb2, 221_hPVR/ICAM, 11 pt) [1] | IC50 (mouse TIGIT-Fc [2]) | IC50 (biotinylated human TIGIT) | EC50 of induced dimerization (YTS_hTIGIT/hTIGIT, 11 pt) [3] | YTS_hTIGI/hGrbs_EFC_Agonism (EC50) [4] | YTS_hTIGI/hGrbs_EFC_Antagonism (IC50) [4] | YTS_hTIGIT/hTIGIT_EFC (EC50) [4] | IC50 (mouse TIGIT-Fc [5]) | IC50 [6] | EC50 [7] | EC50 [8]
B1 | 60.2 nM | 22 nM | 20.3 nM | 4.7 nM |  |  |  |  |  |  | 
B2 |  |  |  |  | > 1000 nM | 60.2 nM | 4.7 nM | 22 nM | 20.3 nM | 5.7 nM | 3.4 nM
